Some results are limits rather than exact numbers.

Assay [1] deals with HLA-B*15:01. The assay is described as follows: IEDB peptide-MHC binding, purified MHC/competitive/radioactivity; filed as Kd, often an IC50 or EC50 that approximates it; ≥ and ≤ were set here for values at or beyond the usual limits of such assays.
In assay [2] the target is HLA-A*02:01. The assay is described as follows: IEDB peptide-MHC binding, purified MHC/competitive/fluorescence; filed as Kd, often an IC50 or EC50 that approximates it; ≥ and ≤ were set here for values at or beyond the usual limits of such assays.
In assay [3] the target is HLA-A*32:01. The assay can be described thus: IEDB peptide-MHC binding, purified MHC/competitive/radioactivity; filed as Kd, often an IC50 or EC50 that approximates it; ≥ and ≤ were set here for values at or beyond the usual limits of such assays.
Assay [4] concerns the target HLA-A*02:01. The assay is described as follows: IEDB peptide-MHC binding, purified MHC/competitive/fluorescence; ≥ and ≤ were set here for values at or beyond the usual limits of such assays.
Assay [5] deals with HLA-A*01:01. The assay can be described thus: IEDB peptide-MHC binding, purified MHC/competitive/radioactivity; filed as Kd, often an IC50 or EC50 that approximates it; ≥ and ≤ were set here for values at or beyond the usual limits of such assays.
The target of assay [6] is HLA-A*26:01. Described as above.
The target in assay [7] is HLA-A*29:02. Described as above.
Assay [8] deals with HLA-A*30:01. The assay is described as above.
In assay [9] the target is HLA-A*30:02. The description is as above.
Assay [10] deals with HLA-A*03:01. The assay can be described thus: IEDB peptide-MHC binding, purified MHC/direct/fluorescence; filed as Kd, often an IC50 or EC50 that approximates it; ≥ and ≤ were set here for values at or beyond the usual limits of such assays. The note with it: source organism: Orthohantavirus hantanense.
Assay [11] has as its target HLA-A*11:01. Described as above. The note with it: source organism: Orthohantavirus hantanense.
Assay [12] concerns the target HLA-A*31:01. The assay is described as above. The note with it: source organism: Orthohantavirus hantanense.
The target in assay [13] is HLA-B*07:02. Described as above.
Assay [14] has as its target HLA-B*15:01. Described as above. The conditions noted are these: source organism: Orthohantavirus hantanense.
In assay [15] the target is HLA-B*27:05. The assay is described as above. The note with it: source organism: Orthohantavirus hantanense.
For assay [16], the target named is HLA-B*51:01. The assay is described as follows: IEDB peptide-MHC binding, purified MHC/competitive/radioactivity; filed as Kd, often an IC50 or EC50 that approximates it; ≥ and ≤ were set here for values at or beyond the usual limits of such assays.
Setting [17] is: source organism: Vaccinia virus WR.
Where [18] appears, read: source organism: Zaire ebolavirus.
[19] abbreviates: source organism: Dengue virus 1 Brazil/97-11/1997.
Where [20] appears, read: source organism: Vaccinia virus.
Setting [21] is: source organism: Lassa virus Josiah.
The mark [22] stands for this setting: source organism: Mammarenavirus guanaritoense.
Where [23] appears, read: source organism: Mammarenavirus brazilense.

For orientation: Kd means the free concentration of one partner at which half of the binding sites on the other are occupied at equilibrium, for simple one-to-one binding. Take RSFTFKEGF: in assay [1] (setting [17]), the Kd was found to be 34.8 nM.
Sequence KIEIERKKL yielded a Kd in [2] (setting [17]) of 422 nM.
For KIDTTHVSKV, the Kd in assay [2] (source organism: Vaccinia virus Tian Tan) was 206 nM.
As to KLITFLFVI, the Kd in [3] (setting [17]) was 0.409 nM.
The IC50 is the concentration needed to halve the response being measured. With GAVKYLEGH, the IC50 in assay [4] (setting [18]) is no less than 521000 nM.
Regarding SIPATLFVWY, the Kd is no less than 20500 nM in assay [5] (setting [19]) and 128 nM in assay [6] (setting [19]).
Take WAFWETKKN: the half-inhibitory concentration (IC50) in assay [4] (setting [18]) was no less than 212000 nM.
With MLHNFLPHM, the Kd in [1] (setting [17]) worked out at 41 nM.
Turning to VFIWFIFHF, the Kd in assay [1] (setting [20]) was found to be 642 nM.
Turning to ITEMLQKEY, the equilibrium dissociation constant (Kd) in assay [5] (setting [21]) was 18.8 nM; in assay [6] (setting [21]) it was no less than 77900 nM; in [7] (setting [21]), 7650 nM; in [8] (setting [21]) it was 4750 nM; in assay [9] (setting [21]), 172 nM; in [3] (setting [21]), no less than 77800 nM.
Consider IIHDFIDNP, for which the IC50 in assay [4] (source organism: Sudan ebolavirus) was no less than 85400 nM.
With TLCDMIKGT, the IC50 in assay [4] (setting [20]) turned out to be 23000 nM.
Consider KMSILGVSI, for which the Kd in assay [3] (setting [17]) worked out at 2.36 nM.
Take RLKPVGSAY: the dissociation constant (Kd) in [10] turned out to be 214 nM; in assay [11], 3630 nM; in [12], 401 nM; in [13] (source organism: Orthohantavirus hantanense), 676 nM; in [14], 357 nM; in [15], 8420 nM.
In [13] (source organism: Mus musculus), RAWDPQPAM displayed a Kd of 36.4 nM.
On to NVINYFNRM, for which the Kd in assay [1] (setting [17]) is 960 nM.
As to VIMEYHLLF, the Kd in assay [3] (source organism: Vaccinia virus Copenhagen) was no less than 77800 nM.
For DLKPENILL, in assay [2] (source organism: Entamoeba histolytica), the Kd was no less than 20000 nM.
In the case of STGNYVHCF, the Kd was 1300 nM in assay [5] (setting [22]); no less than 69200 nM in [6] (setting [22]); no less than 35900 nM in assay [7] (setting [22]); 2740 nM in [8] (setting [22]); no less than 20300 nM in assay [9] (setting [22]); 12100 nM in assay [3] (setting [22]).
For ELNYVLWEGG, the equilibrium dissociation constant (Kd) in assay [3] (source organism: Dengue virus 4 Philippines/H241/1956) came out at 9340 nM.
As to HSIKRNYPY, the Kd in assay [5] (setting [23]) turned out to be 53 nM; in [6] (setting [23]), 660 nM; in assay [7] (setting [23]) it was 262 nM; in assay [8] (setting [23]), 141 nM; in assay [9] (setting [23]), 42.3 nM; in assay [3] (setting [23]), 1720 nM.
For the sequence ATYEPDVDL, the equilibrium dissociation constant (Kd) in assay [3] (source organism: Dengue virus 2 Peru/IQT2913/1996) was 7390 nM.
Regarding MSPCRMFSF, in assay [1] (setting [17]), the Kd worked out at 17.3 nM.
Consider SIKNLVSQF, for which the Kd in assay [1] (setting [17]) amounted to 24.7 nM.
For RTIFNFHLI, the Kd in [3] (setting [17]) was found to be 2.09 nM.
Turning to QVCIDILRS, the IC50 in [4] (setting [20]) is no less than 97100 nM.
Turning to AFGLYKSIN, the IC50 in [4] (setting [17]) is no less than 245000 nM.
Consider KVLFLQQSI, for which, in assay [3] (setting [17]), the Kd is 0.704 nM.
FLWVIILFQ displayed an IC50 in assay [4] (setting [18]) of 12700 nM.
Consider LAIPPTAGI, for which the Kd in [16] (setting [19]) is 393 nM.
GTLEFTPID returned an IC50 in assay [4] (setting [17]) of no less than 132000 nM.
As for LAAIANQAV, the Kd in assay [16] (source organism: Dengue virus 3 Martinique/1243/1999) was 1360 nM.
Sequence LVSKFMSNG showed an IC50 in assay [4] (setting [17]) of no less than 201000 nM.
For the sequence LPLPWTAGA, the Kd in [16] (source organism: Dengue virus 4 Dominica/814669/1981) is 2830 nM.
In [4] (setting [18]), GVKRLEELL displayed a 50% inhibitory concentration (IC50) of 49200 nM.
For the sequence SSGCYIHFF, the Kd in assay [5] (setting [21]) was 195 nM; in assay [6] (setting [21]) it was no less than 64100 nM; in assay [7] (setting [21]) it was no less than 10000 nM; in assay [8] (setting [21]), 6860 nM; in assay [9] (setting [21]), 11500 nM; in assay [3] (setting [21]), no less than 33600 nM.

Values taken from the Immune Epitope Database (IEDB).
